T1: TIF2.1 (TIF2 amino acids 624 to 1287) (human, UniProt Q15596 624-1287)
T1 construct: Form without a stated tag: expression-library clone, expressed in Cos cells from pSG5, or in-vitro-translated; also called cytoplasmic TIF2.1 polypeptide
T1 sequence: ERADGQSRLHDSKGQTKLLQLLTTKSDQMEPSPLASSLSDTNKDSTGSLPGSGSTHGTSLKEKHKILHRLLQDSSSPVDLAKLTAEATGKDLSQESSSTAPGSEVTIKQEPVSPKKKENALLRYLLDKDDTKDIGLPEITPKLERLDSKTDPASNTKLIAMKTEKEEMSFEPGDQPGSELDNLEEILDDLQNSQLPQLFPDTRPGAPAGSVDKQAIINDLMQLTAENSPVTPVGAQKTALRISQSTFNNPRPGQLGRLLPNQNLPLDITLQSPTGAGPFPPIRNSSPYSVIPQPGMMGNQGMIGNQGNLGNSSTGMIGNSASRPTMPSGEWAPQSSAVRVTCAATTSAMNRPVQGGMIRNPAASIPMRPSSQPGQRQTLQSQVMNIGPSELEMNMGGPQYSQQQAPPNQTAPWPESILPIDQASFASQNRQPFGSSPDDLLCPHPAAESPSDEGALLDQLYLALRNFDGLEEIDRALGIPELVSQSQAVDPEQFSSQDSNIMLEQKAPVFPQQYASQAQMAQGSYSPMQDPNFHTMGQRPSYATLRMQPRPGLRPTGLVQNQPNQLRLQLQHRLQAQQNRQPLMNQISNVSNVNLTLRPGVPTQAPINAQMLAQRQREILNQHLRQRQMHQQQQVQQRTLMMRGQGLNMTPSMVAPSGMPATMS

T2: (His)6-TIF2.1, E. coli-expressed purified recombinant TIF2.1 (human, UniProt Q15596 624-1287)
T2 construct: also called His-tagged TIF2.1; purified TIF2.1 protein; not shown: (His)6 tag of pET15b
T2 sequence: T1 sequence

B1: GST-hERα(DEF) (pGEX2T-hERα(DEF), amino acids 282-595) (receptor, human, UniProt P03372 282-595, looked up)
chain: SAGDMRAANLWPSPLMIKRSKKNSLALSLTADQMVSALLDAEPPILYSEYDPTRPFSEASMMGLLTNLADRELVHMINWAKRVPGFVDLTLHDQVHLLECAWLEILMIGLVWRSMEHPGKLLFAPNLLLDRNQGKCVEGMVEIFDMLLATSSRFRMMNLQGEEFVCLKSIILLNSGVYTFLSSTLKSLEEKDHIHRVLDKITDTLIHLMAKAGLTLQQQHQRLAQLLLILSHIRHMSNKGMEHLYSMKCKNVVPLYDLLLEMLDAHRLHAPTSRGGASVEETDQSHLATAGSTSSHSLQKYYITGEAEGFPATV
notes: range 282-595; Bacterially produced; also used 32P-labelled as Far-Western probe; also called GST-ER; GST-ER(DEF); not shown: glutathione-S-transferase (GST) of pGEX2T (Pharmacia)
B2: GST-hRARα(DEF) (pGEX2T-hRARα(DEF), amino acids 153-462) (receptor, human, UniProt P10276 153-462, looked up)
chain: MSKESVRNDRNKKKKEVPKPECSESYTLTPEVGELIEKVRKAHQETFPALCQLGKYTTNNSSEQRVSLDIDLWDKFSELSTKCIIKTVEFAKQLPGFTTLTIADQITLLKAACLDILILRICTRYTPEQDTMTFSDGLTLNRTQMHNAGFGPLTDLVFAFANQLLPLEMDDAETGLLSAICLICGDRQDLEQPDRVDMLQEPLLEALKVYVRKRRPSRPHMFPKMLMKITDLRSISAKGAERVITLKMEIPGSMPPLIQEMLENSEGLDTLSGQPGGGGRDGGGLAPPPGSCSPSLSPSSNRSSPATHSP
notes: range 153-462; Bacterially produced; also called GST-RAR; GST-RARα(DEF); not shown: glutathione-S-transferase (GST) of pGEX2T (Pharmacia)
B3: TIF2.8 (TIF2 amino acids 1010-1179) (other)
chain: GPSELEMNMGGPQYSQQQAPPNQTAPWPESILPIDQASFASQNRQPFGSSPDDLLCPHPAAESPSDEGALLDQLYLALRNFDGLEEIDRALGIPELVSQSQAVDPEQFSSQDSNIMLEQKAPVFPQQYASQAQMAQGSYSPMQDPNFHTMGQRPSYATLRMQPRPGLRPT
notes: In-vitro-translated; also called minimal AD1

Key:
ER = assay: CAT reporter transactivation by ER with TIF2/TIF2.1 coexpression; format: cell-based; conditions: HeLa, Cos-1 cells
Description: (b) HeLa cells were cotransfected with 5 μg Vit-tk-CAT and the indicated amount of HEGO, with or without 5 μg TIF2.1 in the presence of […] E2 or OHT. CAT activity is given relative to that induced by 100 ng HEGO in presence of E2.
(d) HeLa (lanes 1-12) or Cos-1 lanes 13-18) cells were transfected with 5 fig GRE-TATA-CAT (lanes 1-6) or 1 μg MMTV-CAT (lanes 7-18) together with 1 μg hPR with or without 3 μg TIF 2 in presence or absence of […] of the indicated ligand. • (e) Cos-1 cells were cotransfected with 1 μg Vit-tk-CAT and 1 μg HEGO with or without 3 μg TIF2 in presence or absence of 10^−6 M of the indicated ligands.
TIF2-stimulation is to some extent affected by the promoter environment of the responsive gene, as the TIF2 effect on PR/5020-induced transactivation was greater for a complex (MMTV) than for a minimal (GRE-TATA) promoter, although the latter was also reproducibly stimulated (FIG. 5d).

[1] = biological target: T1, TIF2.1 (TIF2 amino acids 624 to 1287); assay: Far-Western blot with 32P-labelled NR LBD probe, agonist present
[2] = biological target: T3, transcriptional intermediary factor-2 (TIF2) (human, UniProt Q15596 1-1464); assay: Far-Western blot with E2-bound 32P-GST-ER(DEF)
T3 construct: Full length: endogenous protein of cell extracts (HeLa, MCF-7 and others), protein from transfected Cos-1 cells, or in-vitro-translated; also called 160-kDa protein

[3] = biological target: T2, (His)6-TIF2.1, E. coli-expressed …; assay: GST interaction assay with E. coli-expressed TIF2.1, Western blot, agonist present
[4] = biological target: B2; assay: GST pull-down with 35S in-vitro-translated TIF2 polypeptides (FIG. 7a-b)
[5] = biological target: B1; assay: as above
ER, RARα and RXRα LBDs = assay: GST pull-down of TIF2 polypeptides with NR LBDs; format: binding; conditions: in vitro, with or without 10^−6 M ligand
Description: (b) Mapping of the nuclear receptor-interacting domain of TIF2.
(c-d) Interaction of TIF2 NID mutants with NRs in vitro. […] For quantification of point mutant interactions, see below.
(e-f) Effect of TIF2 NID point mutations on stimulation of NR AF-2 activity. Cos-1 cells were cotransfected with 1 μg of the (17m)5-TATA-CAT reporter, 0.2 μg of GAL-hERα(EF) or GAL-mRXRα(DE), and 2.5 μg of the TIF2.1 wildtype or mutated fragments, as indicated. […] Each bar represents the mean value obtained from at least three (interaction) or at least four (transactivation) experiments, respectively; standard deviations are indicated. Note that the absolute values for TIF2.1 wildtype activity varied by ±16% when cotransfected with GAL-hERα(EF) and by ±34% when cotransfected with GAL-mRXRα(DE). In the in-vitro-interaction assays, the affinity of the TIF2.1 wildtype standard varied by less than ±25%. Expression levels of TIF2 mutants in the cells were verified by Western blot (not shown) with mouse monoclonal antibody 3Ti3F1, which is directed against an epitope outside the mutated area.
To further delineate the TIF2 NR interaction domain (NID), we studied the interaction between a series of TIF2 deletion mutants and the ER or RARα LBDs, using GST-fusion protein-based in vitro assays. In both cases, an NWD was mapped to the central region of TIF2 (amino acids 624-869 in mutant TIF2.5; see FIGS. 7a and b). No additional NWD could be identified in the N- or C-termini of TIF2 (FIGS. 7a and b; mutants TIF2.0, TIF2.2 and TIF2.7). Note that, in contrast, SRC-1, a paralogue of TIF2, apparently harbours two distinct non-contiguous NIDs located in the central and C-terminal regions (Onate, S. A. et al., Science 270:1354-1357 (1995), Yao, T. P. et al., Proc. Natl. Acad. Sci. USA 93:10626-10631 (1996); Zhu, Y. et al., Gene Epression 6:185-195 (1996)).

GAL4 reporter = assay: GAL4 DBD-TIF2 fusion CAT reporter transactivation assay; format: cell-based
Description: (a) HeLa cells were cotransfected with 1 μg (17m)5-βG-CAT and 10 μg GAL(1-147) or 1,3 and 10 μg GAL(1-147)-TIF2.1, respectively.
(c) Analysis of the transcriptional activity of GAL-TIF2 fusion proteins. Cos-1 and HeLa cells were transfected with 3 lag of plasmids expressing different regions of TIF2 fised to the DNA-binding domain of the yeast transcription factor GALA together with 1 μg of the (7m)5-G-CAT reporterplasmid. CAT assays were performed as described (Bocquel, M. T. et al., Nucl Acids Res. 17:2581-2595 (1989)). Quantitative data on CAT reporter expression were obtained either by phosphoimager analysis (BAS2000, Fuji) of ^14C-labeled CAT reaction products separated by thin-layer chromatography, or using the CAT ELISA Kit (Boehringer Mannheim). In all cases, CAT activities were normalized to the β-galactosidase concentrations resulting from cotransfection of 1 μg of pCMVPGal (gift from T. Lerouge) as internal control. Fold inductions above the GAL4 DBD value are indicated. The mean and standard deviation of at least three experiments are shown. A representative Western blot, illustrating the expression levels of the GAL4-TIF2 fusion proteins, expressed from 10 μg of the corresponding expression vectors, is shown on the left.
(b) Transcriptional activation of TIF2 AF-1 mutants. Cos-1 and HeLa cells were cotransfected with 3 μg of plasmids expressing different mutants of the TIF2 AF-1 fused to the DNA-binding domain of the yeast transcription factor GAL4 together with 1 μg of the (17m)5-G-CAT reporter plasmid. Fold inductions above the activation seen with the GAL4 DBD alone are indicated. The values represent the mean of at least three experiments.
(a) Transcriptional activation by TIF2.13 and TIF2.13 mutants. Cos-1 and HeLa cells were cotransfected with 3 μg of plasmids expressing the TIF2.13 region and the indicated TIF2.13 mutants fused to the DNA-binding domain of the yeast transcription factor GALA together with 1 μg of the (17m)5-G-CAT reporter plasmid. Fold inductions above the GAL4 DBD 1-fold value are indicated. The mean and standard deviation obtained from at least four experiments are shown. The expression levels of the GAL4-TIF2.13 fusion proteins were confirmed by western blotting (data not shown).
Transient transfections of HeLa and Cos-1 cells were performed as described (Gronemeyer et al., (1987); Bocquel, M. T. et al., Nucl. Acids Res. 17:2581-2595 (1989)).

T3 sequence (Q15596 whole entry P1420S): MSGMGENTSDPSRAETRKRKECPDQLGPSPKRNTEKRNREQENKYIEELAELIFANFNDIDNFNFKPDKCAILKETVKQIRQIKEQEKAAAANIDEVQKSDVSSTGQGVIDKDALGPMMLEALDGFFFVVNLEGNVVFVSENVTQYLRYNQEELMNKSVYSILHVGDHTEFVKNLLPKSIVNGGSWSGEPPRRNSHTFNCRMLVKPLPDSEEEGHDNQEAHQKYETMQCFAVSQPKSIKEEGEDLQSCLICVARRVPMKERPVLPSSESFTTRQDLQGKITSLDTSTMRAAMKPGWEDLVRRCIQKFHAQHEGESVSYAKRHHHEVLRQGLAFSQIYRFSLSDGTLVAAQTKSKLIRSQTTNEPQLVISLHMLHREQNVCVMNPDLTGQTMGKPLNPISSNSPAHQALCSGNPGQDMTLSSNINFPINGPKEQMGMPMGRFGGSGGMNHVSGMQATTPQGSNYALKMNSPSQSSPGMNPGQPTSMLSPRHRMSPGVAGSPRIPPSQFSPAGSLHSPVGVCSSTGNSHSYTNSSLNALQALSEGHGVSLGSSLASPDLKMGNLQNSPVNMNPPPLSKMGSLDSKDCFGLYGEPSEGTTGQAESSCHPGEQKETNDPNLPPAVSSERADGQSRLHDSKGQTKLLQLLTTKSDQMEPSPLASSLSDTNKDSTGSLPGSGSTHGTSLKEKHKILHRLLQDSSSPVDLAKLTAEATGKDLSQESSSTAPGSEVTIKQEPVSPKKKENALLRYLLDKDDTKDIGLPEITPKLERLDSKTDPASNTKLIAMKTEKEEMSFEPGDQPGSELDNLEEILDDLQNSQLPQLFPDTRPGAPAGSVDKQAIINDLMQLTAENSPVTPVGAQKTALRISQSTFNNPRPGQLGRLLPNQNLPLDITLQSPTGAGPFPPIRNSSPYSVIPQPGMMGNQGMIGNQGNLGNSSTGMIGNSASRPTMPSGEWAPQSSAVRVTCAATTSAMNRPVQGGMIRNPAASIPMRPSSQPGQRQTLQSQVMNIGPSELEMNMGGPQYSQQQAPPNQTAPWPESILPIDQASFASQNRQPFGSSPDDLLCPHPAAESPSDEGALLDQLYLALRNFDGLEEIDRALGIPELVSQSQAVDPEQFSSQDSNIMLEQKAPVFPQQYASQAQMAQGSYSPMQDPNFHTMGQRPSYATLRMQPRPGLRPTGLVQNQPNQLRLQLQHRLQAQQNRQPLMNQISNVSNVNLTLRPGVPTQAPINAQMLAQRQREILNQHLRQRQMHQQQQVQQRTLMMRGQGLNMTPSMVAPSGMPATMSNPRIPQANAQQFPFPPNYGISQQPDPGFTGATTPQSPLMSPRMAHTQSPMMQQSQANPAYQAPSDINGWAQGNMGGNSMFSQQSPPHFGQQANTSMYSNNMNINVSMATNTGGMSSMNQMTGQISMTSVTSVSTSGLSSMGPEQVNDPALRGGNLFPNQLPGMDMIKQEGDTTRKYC

Molecule: CC/C(=C(\c1ccc(O)cc1)c1ccc(OCCN(C)C)cc1)c1ccccc1 [hydroxytamoxifen]
- stimulation by TIF2.1 of transactivation by antagonist-bound ER (ER): did not lead to any stimulation

Molecule: B1
- binding result [1]: binds
- binding result [2]: binds

Molecule: B2
- binding result [1]: binds
- binding result [3]: binds

Molecule: B3
- binding result [4]: no binding
- binding result [5]: no binding
- binding to NRs (ER, RARα LBDs) (ER, RARα and RXRα LBDs): cannot bind NRs
- transcriptional activation of GAL4 reporter by GAL4 DBD fusion (GAL4 reporter; Cos-1 and/or HeLa cells): able to activate transcription
- increased transactivation relative to parent fragment (GAL4 reporter; Cos-1 cells): 2 fold
- increased transactivation relative to parent fragment (GAL4 reporter; HeLa cells): 10 fold
